The series concerns the molecule itself. Nature of the series: crystal structure; crystals grown in Tris buffer, soaked in Tricine-buffered Tris-free solution without or with amino acids (L-Ser, L-Hse, Gly, L-Ala, L-Thr); space group P4(1)2(1)2, one molecule per asymmetric unit, dimer generated by crystallographic symmetry; 100 K.

B1: Sphingobacterium multivorum serine palmitoyltransferase (enzyme, UniProt A7BFV6 1-399, looked up)
chain: MSKGKLGEKISQFKIVEELKAKGLYAYFRPIQSKQDTEVKIDGRRVLMFGSNSYLGLTTDTRIIKAAQDALEKYGTGCAGSRFLNGTLDIHVELEEKLSAYVGKEAAILFSTGFQSNLGPLSCLMGRNDYILLDERDHASIIDGSRLSFSKVIKYGHNNMEDLRAKLSRLPEDSAKLICTDGIFSMEGDIVNLPELTSIANEFDAAVMVDDAHSLGVIGHKGAGTASHFGLNDDVDLIMGTFSKSLASLGGFVAGDADVIDFLKHNARSVMFSASMTPASVASTLKALEIIQNEPEHIEKLWKNTDYAKAQLLDHGFDLGATESPILPIFIRSNEKTFWVTKMLQDDGVFVNPVVSPAVPAEESLIRFSLMATHTYDQIDEAIEKMVKVFKQAEVETLI
modifications: PLP-Lys244 internal aldimine (ligand-free form); in the amino acid complexes PLP forms an external aldimine with the amino acid
notes: serine palmitoyltransferase of Sphingobacterium multivorum, full length, 398 amino acid residues; the model holds Ser2 to Val395; no tag is mentioned; also called S. multivorum SPT; SPT; source: E. coli BL21 (DE3) pLysS, purified (DEAE, Butyl, second DEAE column chromatography, desalting)
Regarding B1, the binding result is “binds”.
